Tested on: E. coli assay strain Km3
Type: cell-based
Settings: for 0.2 ppm 48 hr (colony color intensity) / Control 84 hr (colony color intensity, background): M9 assay plates, ImageJ colony color intensity; for 0.2 ppm 48 hr (colony color intensity): 0.2 ppm chlorsulfuron, 48 hr at 30° C.; for Control 84 hr (colony color intensity, background): no inducer, 84 hr at 30° C.; for 0.2 ppm 48 hr/Control 84 hr: ratio of colony color with 0.2 ppm chlorsulfuron at 48 hr over no-inducer control at 84 hr; for IND = induction with 200 ppb Cs at 24 hrs (blue colony color intensity thru ImageJ analysis) / F. IND = fold induction: induction with 200 ppb Cs at 24 hrs/repression at 48 hrs / REP = repression measured without inducer after 48 hrs (blue colony color intensity thru ImageJ analysis): library L8 hits, M9 Xgal colony assay; for IND = induction with 200 ppb Cs at 24 hrs (blue colony color intensity thru ImageJ analysis): 200 ppb Chlorsulfuron; for F. IND = fold induction: induction with 200 ppb Cs at 24 hrs/repression at 48 hrs: ratio IND (200 ppb Cs, 24 hrs) / REP (48 hrs)
Procedure: Library L6 was assembled, rescued, ligated into pVER7314, transformed into E. coli KM3 and plated out onto LB carbenicillin/kanamycin, and carbenicillin only control media as before. Library plates were then picked into 42 384-well microtiter plates (˜16,000 clones) containing 60 μl LB carbenicillin (Cb) broth per well. After overnight growth at 37° C. the cultures were stamped onto M9 assay plates containing no inducer, 0.2 ppm, and 2.0 ppm chlorsulfuron as test inducer. Following incubation at 30° C. for ˜48 hrs, putative hits responding to chlorsulfuron treatment as determined by increased blue colony color were re-arrayed into six 96-well microtiter plates and used to stamp a fresh set of M9 assay plates to confirm the above results. For a more detailed analysis of the relative induction by chlorsulfuron, digital photographs were taken of the plates after various time points of incubation at 30° C. and colony color intensity measured using the digital image analysis freeware program ImageJ (Rasband, US National Institutes of Health, Bethesda, Md., USA, rsb.info.nih.gov/ij/, 1997-2007). […] From this analysis sequence-activity relationships were derived. […] Briefly, C at position 100, and Q at positions 108 and 109 strongly correlated with activation, while R at position 138, L at position 170, and A or G at position 173 were highly preferred in clones with the lowest background activity. […] This information will aid in the design of further libraries to improve responsiveness to chlorsulfuron.
Library L8 construction and screening. Fourth round shuffling incorporated the best diversity from Rd3 shuffling (BB1860) as well as computational diversity (Table 14). As diversity was very high the library oligo mix was spiked into the parental hit variant oligo mix (5, 10, and 25% mixes) to titer down the number of residue changes per clone. In addition, to varying residues for Cs activity, seven residues (C68, C86, C88, C121, C144, C195, and C203) were varied with TetR family phylogenetic substitutions in an attempt to reduce the number of cysteine residues in the repressor. The PCR assembled libraries were cloned Sac1/Asc1 into pVER7334. This plasmid encodes PBAD promoter controlled expression of a plant optimized TetR DNA binding domain fused to the wt ligand binding domain of TetR(B) encoded by native Tn10 sequence on a Sac1 to Asc1 fragment. Approximately 15,000 clones were screened for blue colony color on the M9 Xgal assay plates +/−200 ppb Chlorsulfuron (Cs). Clones were ranked by ratio of color with inducer after 24 hrs incubation over colony color without inducer for 48 hrs of incubation. The sequence trend in the overall larger population of hits (first re-array) was that L55, R104, W105 and L170 were maintained while the C144A substitution was highly preferred. Sequence trends within the hit population were then noted with respect to repression, induction and fold induction (which corrects for leakiness).
Mutagenesis reactions were transformed into library strain Km3 and 96 colonies tested for substitution by DNA sequence analysis. Substitutions representing each possible residue at each position were then re-arrayed in triplicate onto M9 X-gal assay plates with 0, 20 and 200 ppb Chlorsulfuron. Plates were incubated at 37° C. for 24 and 48 hrs prior to imaging. Residue substitutions were then ranked by activation (emphasis on 20 ppb Cs) and repression characteristics (emphasis on 48 hr time point). The mutation with the greatest impact on activity was substitution of residue N82 to phenylalanine or tyrosine. […] All other preferred substitutions shown in Table 18 either improved repression or improved sensitivity to inducer without compromising repressor function. Certain residues were indispensible to function such as R104, W105, and W174 as substitutions were not allowed. Other residue positions such as R138 and K177 were also flagged as critical since functional substitutions were extremely limited. […]

Molecule | 0.2 ppm 48 hr (colony color intensity) | Control 84 hr (colony color intensity, background) | 0.2 ppm 48 hr/Control 84 hr | IND = induction with 200 ppb Cs at 24 hrs (blue colony color intensity thru ImageJ analysis) | F. IND = fold induction: induction with 200 ppb Cs at 24 hrs/repression at 48 hrs | REP = repression measured without inducer after 48 hrs (blue colony color intensity thru ImageJ analysis)
L6-1B03 (protein, Sulfonylurea responsive repressor) MGSRLDKSKVINSALELLNEVGIEGLTTRKLAQKLGVEQPTLYWHVKNKRALLDALAIEMMDRHATHICPLEGESWQDFLRNNAKSMRCALLSHRDGAKVCLGTRWTEQQYEAAENMLAFLCQQGFSLENALYAVSAVRVFTLGCVLFDQESQVAKEERETPTTASMPPLLRQAWELKDHQGAEPAFLFGLELIICGLEKQLKCESGS | 30.0 | 6.6 | 4.6 | – | – | –
L6-4D10: library L6 clone, parent of library L8 hits (protein, Sulfonylurea responsive repressor, library L6 clone, parent of library L8 hits) MGSRLDKSKVINSALELLNEVGIEGLTTRKLAQKLGVEQPTLYWHVKNKRALLDALAIEMMDRHQTHYCPLEGESWQDFLRNNAKSMRCALLSHRDGAKVCLGTRWTEKQYESAENMLAFLCQQGFSLENALYAVSAVRVFTLGCVLFDQESQVAKEERETPTTASMPPLLRQAWELKDHQGAEPAFLFGLELIICGLEKQLKCESGS | 18.4 | 5.0 | 3.7 | 0.2 | 0.4 | 0.6
L6-5F05 (protein, Sulfonylurea responsive repressor) MGSRLDKSKVINSALELLNEVGIEGLTTRKLAQKLGVEQPTLYWHVKNKRALLDALAIEMMDRHATHICPLEGESWQDFLRNNAKSMRCALLSHRDGAKVCLGTRWTEQQYEAAENQLAFLCQQGFSLENALYAVSAVRVFTLGCVLFDQELQVAKEERETPTTASMPPLLRQAWELKDHQGAEPAFLFGLELIICGLEKQLKCESGS | 22.0 | 5.4 | 4.1 | – | – | –
L6-5H06 (protein, Sulfonylurea responsive repressor) MGSRLDKSKVINSALELLNEVGIEGLTTRKLAQKLGVEQPTLYWHVKNKRALLDALAIEMMDRHQTHICPLEGESWQDFLRNNAKSMRCALLSHRDGAKVCLGTRWTEKQYETAENMLAFLCQQGFSLENALYAVSAVRVFTLGCVLFDQELQVAKEERETPTTASMPPLVRQAWELKDHQGAEPAFLFGLELIICGLEKQLKCESGS | 13.7 | 5.1 | 2.7 | – | – | –
L6-5H12 (protein, Sulfonylurea responsive repressor) MGSRLDKSKVINSALELLNEVGIEGLTTRKLAQKLGVEQPTLYWHVKNKRALLDALAIEMMDRHATHYCPLEGESWQDFLRNNAKSMRCALLSHRDGAKVCLGTRWTEKQYETAENQLAFLCQQGFSLENALYAMSAVRVFTLGCVLFDQELQVAKEERETPTTASMPPLVRQAWELKDHQGAEPAFLFGLELIICGLEKQLKCESGS | 23.7 | 5.7 | 4.2 | – | – | –
L6-2D07 (protein, Sulfonylurea responsive repressor) MGSRLDKSKVINSALELLNEVGIEGLTTRKLAQKLGVEQPTLYWHVKNKRALLDALAIEMMDRHQTHFCPLEGESWQDFLRNTAKSMRCALLSHRDGAKVCLGTRWTEQQYETAENMLAFLCQQGFSLENALYAMSAVRVFTLGCVLFDQESQVAKEERETPTTASMPPLVRQAWELKDHQGAEPAFLFGLELIICGLEKQLKCESGS | 20.0 | 5.8 | 3.4 | – | – | –
L6-2C09 (protein, Sulfonylurea responsive repressor) MGSRLDKSKVINSALELLNEVGIEGLTTRKLAQKLGVEQPTLYWHVKNKRALLDALAIEMMDRHQTHYCPLEGESWQDFLRNTAKSMRCALLSHRDGAKVCLGTRWTEQLYETAENQLAFLCQQGFSLENALYAMSAVRVFTLGCVLFDQELQVAKEERETPTTASMPPLLRQAWELKDHQGAEPAFLFGLELIICGLEKQLKCESGS | 13.6 | 5.2 | 2.6 | – | – | –
L6-3H02: SuR polypeptide, SEQ ID NO:94 (protein, Sulfonylurea responsive repressor) MGSRLDKSKVINSALELLNEVGIEGLTTRKLAQKLGVEQPTLYWHVKNKRALLDALAIEMMDRHATHYCPLEGESWQDFLRNTAKSMRCALLSHRDGAKVCLGTRWTEQHYESAENMLAFLCQQGFSLENALYAVSAVRVFTLGCVLFDQESQVAKEERETPTTASMPPLVRQAWELKVHQGAEPAFLFGLELIICGLEKQLKCESGS | 15.8 | 5.6 | 2.8 | – | – | –
L6-6F07 (protein, Sulfonylurea responsive repressor) MGSRLDKSKVINSALELLNEVGIEGLTTRKLAQKLGVEQPTLYWHVKNKRALLDALAIEMMDRHATHLCPLEGESWQDFLRNTAKSMRCALLSHRDGAKVCLGTRWTEQQYESAENMLAFLCQQGFSLENALYAMSAVRVFTLGCVLFDQESQVAKEERETPTTASMPPLLRQAWELKDHQGAEPAFLFGLELIICGLEKQLKCESGS | 11.6 | 5.1 | 2.3 | – | – | –
L6-5G06 (protein, Sulfonylurea responsive repressor) MGSRLDKSKVINSALELLNEVGIEGLTTRKLAQKLGVEQPTLYWHVKNKRALLDALAIEMMDRHQTHYCPLEGESWQDFLRNNAKSMRCALLSHRDGAKVCLGTRWTEQQYETAENQLAFLCQQGFSLENALYAVSAVRVFTLGCVLFDQELQVAKEERETPTTASMPPLLRQGWELKDHQGAEPAFLFGLELIICGLEKQLKCESGS | 34.4 | 7.0 | 4.9 | – | – | –
L8-3F09 (protein, Sulfonylurea responsive repressor) MARLDKSKVINSALELLNEVGIEGLTTRKLAQKLGVEQPTLYWHVKNKRALLDALAIEMMDRHQTHYSPLEGESWQDFLRNNAKSLRCALLSHRDGAKVCLGTRWTEQQYESAENMLAFLTQQGFSLENALYALTAVRVFTLGWVLFDQESQVAKEERETPTTDSMPPLLRQAWELKDHQGAEPAFLFGLELIIAGLEKQLKRESGS | – | – | – | 5.6 | 9.7 | 0.6
L8-1A04 (protein, Sulfonylurea responsive repressor) MARLDKSKVINSALELLNEVGIEGLTTRKLAQKLGVEQPTLYWHVKNKRALLDALAIEMMDRHQTHYLPLEGESWQDFLRNNAKSCRNALLSHRDGAKVCLGTRWTEQQYETAENMLAFLTQQGFSLENALYALEAARVFTLGAVLFDQESQVAKEERETPTTDSMPPLLRQAWELKDHQGAEPAFLFGLELIISGLEKQLKRESGS | – | – | – | 12.2 | 6.2 | 2.0
